According to paper PMC10397247:
Blank lines part the entries; values can stand above or below the binder they belong to.

How the values were obtained:
P3A-bS = biological target: T1, P3A-bS; assay: two-hybrid library CCNG1;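 further: natural log of median RNA to DNA barcode read ratio; higher means stronger binding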
T1 chain: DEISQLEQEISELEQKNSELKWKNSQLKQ

P4A-bS = biological target: T2, P4A-bS; assay: two-hybrid library CCNG1;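 further: natural log of median RNA to DNA barcode read ratio; higher means stronger binding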
T2 chain: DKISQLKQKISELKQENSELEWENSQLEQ

P5A-bS = biological target: T3, P5A-bS; assay: two-hybrid library CCNG1;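 further: natural log of median RNA to DNA barcode read ratio; higher means stronger binding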
T3 chain: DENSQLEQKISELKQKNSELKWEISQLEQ

P7A-bS = biological target: T4, P7A-bS; assay: two-hybrid library CCNG1;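 further: natural log of median RNA to DNA barcode read ratio; higher means stronger binding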
T4 chain: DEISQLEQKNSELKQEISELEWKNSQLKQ

P8A-bS = biological target: T5, P8A-bS; assay: two-hybrid library CCNG1
T5 chain: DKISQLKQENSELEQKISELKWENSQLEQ

P9A-bS = biological target: T6, P9A-bS; assay: two-hybrid library CCNG1
T6 chain: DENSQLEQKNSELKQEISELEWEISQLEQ

4H2622-AA = biological target: T7, 4H2622-AA; assay: two-hybrid library CCmax
T7 chain: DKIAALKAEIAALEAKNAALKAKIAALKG

4H2705-AA = biological target: T8, 4H2705-AA; assay: two-hybrid library CCmax; settings: mean of both orientations
T8 chain: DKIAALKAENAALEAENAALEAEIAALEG

4H2736-AA = biological target: T9, 4H2736-AA; assay: two-hybrid library CCmax; settings: mean of both orientations
T9 chain: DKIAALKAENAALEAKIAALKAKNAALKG

4H2888-AA = biological target: T10, 4H2888-AA; assay: two-hybrid library CCmax; settings: mean of both orientations
T10 chain: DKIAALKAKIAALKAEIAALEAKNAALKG

4H3049-AA = biological target: T11, 4H3049-AA; assay: two-hybrid library CCmax; settings: mean of both orientations
T11 chain: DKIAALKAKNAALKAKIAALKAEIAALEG

4H337-AA = biological target: T12, 4H337-AA; assay: two-hybrid library CCmax; settings: mean of both orientations
T12 chain: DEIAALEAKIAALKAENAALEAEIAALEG

4H3587-AA = biological target: T13, 4H3587-AA; assay: two-hybrid library CCmax; settings: mean of both orientations
T13 chain: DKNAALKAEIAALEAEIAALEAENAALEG

4H3590-AA = biological target: T14, 4H3590-AA; assay: two-hybrid library CCmax; settings: mean of both orientations
T14 chain: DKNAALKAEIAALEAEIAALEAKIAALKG

4H3625-AA = biological target: T15, 4H3625-AA; assay: two-hybrid library CCmax; settings: mean of both orientations
T15 chain: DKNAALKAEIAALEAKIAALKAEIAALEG

4H384-AA = biological target: T16, 4H384-AA; assay: two-hybrid library CCmax; settings: mean of both orientations
T16 chain: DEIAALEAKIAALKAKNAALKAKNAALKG

4H3905-AA = biological target: T17, 4H3905-AA; assay: two-hybrid library CCmax; settings: mean of both orientations
T17 chain: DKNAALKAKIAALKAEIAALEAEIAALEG

4H4038-AA = biological target: T18, 4H4038-AA; assay: two-hybrid library CCmax; settings: mean of both orientations
T18 chain: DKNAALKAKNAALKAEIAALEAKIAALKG

4H43-AA = biological target: T19, 4H43-AA; assay: two-hybrid library CCmax; settings: mean of both orientations
T19 chain: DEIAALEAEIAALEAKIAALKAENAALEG

4H451-AA = biological target: T20, 4H451-AA; assay: two-hybrid library CCmax; settings: mean of both orientations
T20 chain: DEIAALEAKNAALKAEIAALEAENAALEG

4H510-AA = biological target: T21, 4H510-AA; assay: two-hybrid library CCmax; settings: mean of both orientations
T21 chain: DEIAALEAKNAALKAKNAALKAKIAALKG

4H_APH = biological target: T22, 4H_APH; assay: two-hybrid library CCmax; settings: mean of both orientations
T22 chain: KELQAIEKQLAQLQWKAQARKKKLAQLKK

4H_BCR = biological target: T23, 4H_BCR; assay: two-hybrid library CCmax; settings: mean of both orientations
T23 chain: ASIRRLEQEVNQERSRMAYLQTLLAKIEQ

4H_GCN4 = assay: two-hybrid library CCmax; settings: mean of both orientations
4H_GCN4, sequence (chain, as listed by the source): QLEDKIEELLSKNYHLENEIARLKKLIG

GCN2_T = assay: two-hybrid library CCmax; settings: mean of both orientations
O11-AA = biological target: T24, O11-AA; assay: two-hybrid library CCmax; settings: mean of both orientations
T24 chain: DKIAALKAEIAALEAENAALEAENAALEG

O13-AA = biological target: T25, O13-AA; assay: two-hybrid library CCmax; settings: mean of both orientations
T25 chain: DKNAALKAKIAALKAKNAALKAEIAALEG

O14-AA = biological target: T26, O14-AA; assay: two-hybrid library CCmax; settings: mean of both orientations
T26 chain: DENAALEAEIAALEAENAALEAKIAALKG

4H235-bN = biological target: T27, 4H235-bN; assay: two-hybrid library CCNG1
T27 chain: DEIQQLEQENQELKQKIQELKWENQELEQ

4H2444-bN = biological target: T28, 4H2444-bN; assay: two-hybrid library CCNG1
T28 chain: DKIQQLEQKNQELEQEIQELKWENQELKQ

4H2518-bN = biological target: T29, 4H2518-bN; assay: two-hybrid library CCNG1
T29 chain: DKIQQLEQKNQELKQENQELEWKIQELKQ

4H2585-bN = biological target: T30, 4H2585-bN; assay: two-hybrid library CCNG1
T30 chain: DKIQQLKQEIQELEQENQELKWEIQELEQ

4H264-bN = biological target: T31, 4H264-bN; assay: two-hybrid library CCNG1
T31 chain: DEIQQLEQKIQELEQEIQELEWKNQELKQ

4H2760-bN = biological target: T32, 4H2760-bN; assay: two-hybrid library CCNG1
T32 chain: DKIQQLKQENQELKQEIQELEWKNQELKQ

4H2859-bN = biological target: T33, 4H2859-bN; assay: two-hybrid library CCNG1
T33 chain: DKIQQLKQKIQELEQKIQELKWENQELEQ

4H2931-bN = biological target: T34, 4H2931-bN; assay: two-hybrid library CCNG1
T34 chain: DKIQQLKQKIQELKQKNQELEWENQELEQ

4H3041-bN = biological target: T35, 4H3041-bN; assay: two-hybrid library CCNG1
T35 chain: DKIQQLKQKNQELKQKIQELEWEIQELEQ

4H3297-bN = biological target: T36, 4H3297-bN; assay: two-hybrid library CCNG1
T36 chain: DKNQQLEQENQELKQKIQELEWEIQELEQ

4H3364-bN = biological target: T37, 4H3364-bN; assay: two-hybrid library CCNG1
T37 chain: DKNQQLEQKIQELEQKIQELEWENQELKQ

4H3381-bN = biological target: T38, 4H3381-bN; assay: two-hybrid library CCNG1
T38 chain: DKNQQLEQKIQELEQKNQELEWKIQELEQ

4H349-bN = biological target: T39, 4H349-bN; assay: two-hybrid library CCNG1
T39 chain: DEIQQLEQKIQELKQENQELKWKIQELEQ

4H56-bN = biological target: T40, 4H56-bN; assay: two-hybrid library CCNG1
T40 chain: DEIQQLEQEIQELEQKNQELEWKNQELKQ

4H730-bN = biological target: T41, 4H730-bN; assay: two-hybrid library CCNG1
T41 chain: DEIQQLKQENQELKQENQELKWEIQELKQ

4H796-bN = biological target: T42, 4H796-bN; assay: two-hybrid library CCNG1
T42 chain: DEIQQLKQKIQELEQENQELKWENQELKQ

4H932-bN = biological target: T43, 4H932-bN; assay: two-hybrid library CCNG1
T43 chain: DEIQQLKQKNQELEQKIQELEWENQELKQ

4H949-bN = biological target: T44, 4H949-bN; assay: two-hybrid library CCNG1
T44 chain: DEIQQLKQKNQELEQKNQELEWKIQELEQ

P5A-bN = biological target: T45, P5A-bN; assay: two-hybrid library CCNG1
T45 chain: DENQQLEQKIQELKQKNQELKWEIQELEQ

P6A-bN = biological target: T46, P6A-bN; assay: two-hybrid library CCNG1
T46 chain: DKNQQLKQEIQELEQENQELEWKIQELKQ

P7A-bN = biological target: T47, P7A-bN; assay: two-hybrid library CCNG1
T47 chain: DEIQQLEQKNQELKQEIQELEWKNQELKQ

P8A-bN = biological target: T48, P8A-bN; assay: two-hybrid library CCNG1
T48 chain: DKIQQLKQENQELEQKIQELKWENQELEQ

P9A-bN = biological target: T49, P9A-bN; assay: two-hybrid library CCNG1
T49 chain: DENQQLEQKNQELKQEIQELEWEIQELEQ

Binder: DEISQLEQEISELEQKNSELKWKNSQLKQ [P3A-bS]
- interaction score (P3A-bS): -1.29
- interaction score (P4A-bS): 1.45
- interaction score (P5A-bS): -0.938
- interaction score (P7A-bS): -0.377
- interaction score (P8A-bS): -0.303
- interaction score (P9A-bS): 0.297

Binder: DEIQQLEQENQELKQKIQELKWENQELEQ [4H235-bN]
- interaction score (4H235-bN): 0.562
- interaction score (4H2444-bN): -0.884
- interaction score (4H2518-bN): -0.299
- interaction score (4H2585-bN): -0.77
- interaction score (4H264-bN): -0.206
- interaction score (4H2760-bN): 2.03
- interaction score (4H2859-bN): 0.00948
- interaction score (4H2931-bN): -1.14
- interaction score (4H3041-bN): -0.319
- interaction score (4H3297-bN): -0.527
- interaction score (4H3364-bN): 0.709
- interaction score (4H3381-bN): -1.48
- interaction score (4H349-bN): -0.0107
- interaction score (4H56-bN): -0.626
- interaction score (4H730-bN): -1.94
- interaction score (4H796-bN): -0.458
- interaction score (4H932-bN): -0.682
- interaction score (4H949-bN): -0.438

More lines, now with the values ahead:

- interaction score (4H2622-AA): 1.07
- interaction score (4H2705-AA): 0.956
- interaction score (4H2736-AA): -0.125
- interaction score (4H2888-AA): 0.116
- interaction score (4H3049-AA): 0.212
- interaction score (4H337-AA): 2.35
- interaction score (4H3587-AA): 0.659
- interaction score (4H3590-AA): 0.684
- interaction score (4H3625-AA): 1.6
- interaction score (4H384-AA): -1.12
- interaction score (4H3905-AA): 1.43
- interaction score (4H4038-AA): -1.2
- interaction score (4H43-AA): 1.57
- interaction score (4H451-AA): -0.0617
- interaction score (4H510-AA): -0.508
- interaction score (4H_APH): -1.87
- interaction score (4H_BCR): -0.274
- interaction score (4H_GCN4): 0.309
- interaction score (GCN2_T): 0.0302
- interaction score (O11-AA): 1.62
- interaction score (O13-AA): 0.551
- interaction score (O14-AA): 2.2
Binder: DKIAALKAEIAALEAKNAALKAKIAALKG [4H2622-AA]

- interaction score (P5A-bN): -1.81
- interaction score (P6A-bN): 1.62
- interaction score (P7A-bN): -1.53
- interaction score (P8A-bN): -0.311
- interaction score (P9A-bN): -1.14
Binder: DENQQLEQKIQELKQKNQELKWEIQELEQ [P5A-bN]
